First the molecules themselves.
B2: full-length intracellular domain of the p55-TNF-R (p55IC) (receptor)
chain: RYQRWKSKLYSIVCGKSTPEKEGELEGTTTKPLAPNPSFSPTPGFTPTLGFSPVPSSTFTSSSTYTPGDCPNFAAPRREVAPPYQGADPILATALASDPIPNPLQKWEDSAHKPQSLDTDDPATLYAVVENVPPLRWKEFVRRLGLSDHEIDRLELQNGRCLREAQYSMLATWRRRTPRREATLELLGRVLRDMDLLGCLEDIEEALCGPAALPPAPSLLR
notes: the GAL4 part is not written as a piece; also called pGBT9-IC55; IC55

For series [1], the target named is T1, pGBT9 (vector alone) (UniProt P04386 1-147).
T1 construct: Negative control bait; also called empty bait vector; empty Gal4 (pGBT9) vector
T1 sequence (P04386 1-147 limits assumed): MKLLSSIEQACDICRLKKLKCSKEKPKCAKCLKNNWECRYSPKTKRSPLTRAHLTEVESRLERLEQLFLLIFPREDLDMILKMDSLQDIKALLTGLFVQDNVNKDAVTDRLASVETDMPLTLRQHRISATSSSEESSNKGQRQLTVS
The series can be described thus: yeast two-hybrid, colony colour (lacZ/X-gal).

For series [2], the target named is B2. The series can be described thus: yeast two-hybrid (SFY526), liquid beta-galactosidase assay.
Series [3] has as its target T2, lamin (irrelevant protein).
T2 construct: Two-hybrid control bait; also called pACT-Lamin
Described as above.

Series [4] has as its target T1, pGBT9 (vector alone). The series is described as above.
The target in series [5] is T3, 55.11 protein, partial (residues 309-900, as originally isolated), GAL4 activation-domain hybrid (human, UniProt Q13200 318-899). As to the kind of experiment: yeast two-hybrid, colony colour (lacZ/X-gal).
T3 sequence (Q13200 other isoform, or with tags, fused parts or gaps): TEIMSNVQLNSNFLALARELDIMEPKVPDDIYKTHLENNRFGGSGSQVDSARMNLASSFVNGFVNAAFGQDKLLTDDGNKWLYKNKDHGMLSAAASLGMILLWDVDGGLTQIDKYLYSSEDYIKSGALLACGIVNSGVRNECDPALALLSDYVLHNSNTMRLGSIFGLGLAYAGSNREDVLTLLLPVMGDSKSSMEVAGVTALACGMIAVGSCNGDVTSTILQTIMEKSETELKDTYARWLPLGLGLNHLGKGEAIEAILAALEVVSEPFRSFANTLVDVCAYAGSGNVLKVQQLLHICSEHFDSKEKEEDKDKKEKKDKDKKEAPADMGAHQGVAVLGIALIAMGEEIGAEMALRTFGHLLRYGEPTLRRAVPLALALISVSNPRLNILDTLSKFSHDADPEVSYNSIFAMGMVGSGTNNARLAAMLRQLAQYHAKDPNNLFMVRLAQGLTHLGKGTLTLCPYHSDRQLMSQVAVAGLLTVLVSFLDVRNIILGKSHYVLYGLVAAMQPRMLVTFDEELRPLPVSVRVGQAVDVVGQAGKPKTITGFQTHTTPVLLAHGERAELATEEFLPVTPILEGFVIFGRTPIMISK
Series [6] addresses T4, 55.11 protein, partial (residues 309-900), VP16 activation-domain hybrid (human, UniProt Q13200 318-899).
T4 construct: the VP16 part is not written; also called VP16AD
As to the kind of experiment: yeast two-hybrid beta-galactosidase filter assay (SFY526), FIG. 13.

Series [7] deals with T5, 55.11 construct 309-680 (C-terminal truncation) (human, UniProt Q13200 318-689).
T5 construct: GAL4 part not written
T5 sequence (Q13200 318-689): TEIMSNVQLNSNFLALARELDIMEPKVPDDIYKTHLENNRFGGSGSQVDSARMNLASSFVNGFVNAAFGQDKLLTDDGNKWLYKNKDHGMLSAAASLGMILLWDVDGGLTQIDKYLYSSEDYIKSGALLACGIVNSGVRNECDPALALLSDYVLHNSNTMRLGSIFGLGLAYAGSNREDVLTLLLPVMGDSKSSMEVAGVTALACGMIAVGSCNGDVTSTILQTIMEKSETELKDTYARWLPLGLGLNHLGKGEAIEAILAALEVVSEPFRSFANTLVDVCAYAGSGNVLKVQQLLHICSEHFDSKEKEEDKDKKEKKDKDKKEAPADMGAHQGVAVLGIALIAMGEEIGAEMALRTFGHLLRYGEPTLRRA
The series is described as above.

Series [8] deals with T6, 55.11 construct 457-900 (N-terminal truncation) (human, UniProt Q13200 466-899).
T6 construct: GAL4 part not written
T6 sequence (Q13200 other isoform, or with tags, fused parts or gaps): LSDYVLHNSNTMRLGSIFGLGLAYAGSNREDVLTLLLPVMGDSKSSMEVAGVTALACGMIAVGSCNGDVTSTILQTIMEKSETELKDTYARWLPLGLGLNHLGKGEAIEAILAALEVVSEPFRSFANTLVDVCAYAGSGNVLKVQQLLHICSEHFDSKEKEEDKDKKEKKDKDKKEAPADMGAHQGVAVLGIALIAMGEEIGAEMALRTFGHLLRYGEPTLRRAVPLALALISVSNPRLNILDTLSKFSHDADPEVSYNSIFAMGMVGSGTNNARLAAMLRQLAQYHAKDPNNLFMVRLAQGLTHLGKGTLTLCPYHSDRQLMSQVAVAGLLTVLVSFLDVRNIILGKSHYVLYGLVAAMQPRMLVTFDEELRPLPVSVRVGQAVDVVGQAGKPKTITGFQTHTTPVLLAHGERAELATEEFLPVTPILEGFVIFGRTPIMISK
Described as above.

For series [9], the target named is T3, 55.11 protein, partial (residues …). The series is described as above.
In series [10] the target is B2. As to the kind of experiment: yeast two-hybrid (SFY526), various baits.
Series [11] concerns the molecule itself. As to the kind of experiment: yeast two-hybrid beta-galactosidase test (FIG. 14).

B1: 55.1 (protein fragment 55.1 of the p55IC, residues 328-426, the death domain) (receptor)
chain: ATLYAVVENVPPLRWKEFVRRLGLSDHEIDRLELQNGRCLREAQYSMLATWRRRTPRREATLELLGRVLRDMDLLGCLEDIEEALCGPAALPPAPSLLR
notes: also called death domain of human p55-R
With B1, in the series with pGBT9 (vector alone) [1], the binding result was “no binding”. For the same molecule, the “Lac Z Activity in Liquid Culture Assay” value in series [2] was 0.65; in [3] it was 0; with pGBT9 (vector alone) [4] it was 0.
Take B2: the binding result in [5] is “binds”; in series [6] it was “binds”; in [7], “no binding (tested: no development of color within 24 h)”; in series [8] it was “no binding (tested: no development of color within 24 h)”.

B3: p55-IC construct from which both the death domain and a membrane proximal part were deleted (construct 243-328) (receptor)
chain: SFSPTPGFTPTLGFSPVPSSTFTSSSTYTPGDCPNFAAPRREVAPPYQGADPILATALASDPIPNPLQKWEDSAHKPQSLDTDDPA
notes: GAL4 part not written
For B3, the binding result in [9] is listed as “binds”.

B4: C terminally truncated p55-IC (construct 206-308) (receptor)
chain: RYQRWKSKLYSIVCGKSTPEKEGELEGTTTKPLAPNPSFSPTPGFTPTLGFSPVPSSTFTSSSTYTPGDCPNFAAPRREVAPPYQGADPILATALASDPIPNP
notes: GAL4 part not written
For B4, in series [9], the binding result was “binds”.

B5: E3 (p75IC-binding protein encoded by clone E3) (other)
chain: TFKIRMEPDETVKVLKEKIEAEKGRDAFPVAGQKLIYAGKILSDDVPIRDYRIDEKNFVVVMVTKTKAGQGTSAPPEASPTAAPESSTSFPPAPTSGMSHPPPAAREDKSPSEESTPTPEQEPCLZ
notes: GAL4 part not written; for coprecipitation expressed in HeLa cells from pUHD10-3
Consider B5, for which the binding result in [10] is listed as “no binding”.

B6: 55.3 (protein fragment 55.3 of the p55IC, residues 277-426) (receptor)
chain: NFAAPRREVAPPYQGADPILATALASDPIPNPLQKWEDSAHKPQSLDTDDPATLYAVVENVPPLRWKEFVRRLGLSDHEIDRLELQNGRCLREAQYSMLATWRRRTPRREATLELLGRVLRDMDLLGCLEDIEEALCGPAALPPAPSLLR
As for B6, the “Lac Z Activity in Liquid Culture Assay” value amounted to 0.04 in series [2], 0 in [3] and 0 in the series with pGBT9 (vector alone) [4].

B7: truncated p55-IC from which the death domain had been deleted (construct 206-328) (receptor)
chain: RYQRWKSKLYSIVCGKSTPEKEGELEGTTTKPLAPNPSFSPTPGFTPTLGFSPVPSSTFTSSSTYTPGDCPNFAAPRREVAPPYQGADPILATALASDPIPNPLQKWEDSAHKPQSLDTDDPA
notes: GAL4 part not written
B7: the binding result in [9] is recorded as “binds”.

B8: E19 (p75IC-binding protein encoded by clone E19) (other)
chain: EAAGRERERTLEYAEAHAFKSPSKENKKKDKDMLEDKFKSNNLEREQEQLDRIVKESGGKLTRRLVNSQCEFERRKPDGTTTLGLLHPVDPIVGEPGYCPVRLGMTTGRLQSGVNTLQGFKEDKRNKVTPVLYLELWAPTVLYAPHYDSTFANYQQGLI
notes: HeLa cDNA clone in pGAD-GH; GAL4 part not written
Regarding B8, the binding result in series [10] was “no binding”.

B9: protein encoded by the 230 clone (other)
chain: GPIREAGLAGWLALGCSGPPAEAAGGAGEPWPQHSGKGQLAGRNAWVKKRKAPRENSPGVRSCRASGRASRPHGDPFLLTLPRARHPVTLNVTIQVSLKQRNVRFNTPFRRGEN
notes: 114 amino acid residues; HeLa cDNA clone in pGAD-GH; GAL4 part not written
With B9, the binding result in series [10] is recorded as “no binding”.

B10: mouse Fas/APO1 intracellular domain (FAS-IC, residues 166-306) (receptor, UniProt P25446 187-327, looked up)
chain: RKYRKRKCWKRRQDDPESRTSSRETIPMNASNLSLSKYIPRIAEDMTIQEAKKFARENNIKEGKIDEIMHDSIQDTAEQKVQLLLCWYQSHGKSDAYQDLIKGLKKAECRRTLDKFQDMVQKDLGKSTPDTGNENEGQCLE
notes: range 166-306; GAL4 hybrid constructs; also called murine FAS-IC; mouse FAS-IC
Regarding B10, the binding result in series [11] was “binds”.
